Values quoted from earlier work as cited in US20220031761A1, “COMPOSITIONS FOR PROMOTING SKIN REGENERATION, SKIN REJUVENATION, AND WOUND HEALING AND METHODS FOR PREPARATION AND USE THEREOF” (priority 2018, published 2022).

Details: in vivo

Substance: HGF: growth factor secreted by mesenchymal cells, eluted by placental and umbilical tissue
- half-life of HGF: approximately 3 hours
